Measured values taken from patent US20020034812.

T1: 35S-methionine-labeled His6-tagged murine caspase-14
T1 sequence: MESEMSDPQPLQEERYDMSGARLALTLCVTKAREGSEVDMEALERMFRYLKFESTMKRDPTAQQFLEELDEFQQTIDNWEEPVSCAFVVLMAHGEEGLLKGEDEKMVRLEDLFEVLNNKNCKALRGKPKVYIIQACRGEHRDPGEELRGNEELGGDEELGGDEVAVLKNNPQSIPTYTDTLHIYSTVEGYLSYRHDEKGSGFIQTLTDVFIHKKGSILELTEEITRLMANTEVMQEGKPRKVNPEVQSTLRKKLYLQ

T2: radiolabeled murine caspase-3 (UniProt P70677)
T2 sequence: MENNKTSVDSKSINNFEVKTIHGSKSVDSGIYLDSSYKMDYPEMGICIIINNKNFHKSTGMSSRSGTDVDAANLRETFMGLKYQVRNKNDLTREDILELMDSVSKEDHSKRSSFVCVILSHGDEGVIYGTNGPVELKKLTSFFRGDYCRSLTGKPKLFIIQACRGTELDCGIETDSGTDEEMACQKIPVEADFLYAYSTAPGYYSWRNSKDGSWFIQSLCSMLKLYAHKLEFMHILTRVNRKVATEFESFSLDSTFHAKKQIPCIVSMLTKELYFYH

T3: 35S-methionine-labeled His6-tagged murine caspase-14
T3 chain: T1 sequence

B1: purified murine caspase-3 (protein)
chain: SGIYLDSSYKMDYPEMGICIIINNKNFHKSTGMSSRSGTDVDAANLRETFMGLKYQVRNKNDLTREDILELMDSVSKEDHSKRSSFVCVILSHGDEGVIYGTNGPVELKKLTSFFRGDYCRSLTGKPKLFIIQACRGTELDCGIETDSGTDEEMACQKIPVEADFLYAYSTAPGYYSWRNSKDGSWFIQSLCSMLKLYAHKLEFMHILTRVNRKVATEFESFSLDSTFHAKKQIPCIVSMLTKELYFYH
B2: purified murine caspase-11 (protein)
chain: PGSHHGEANLEMEEPEESLNTLKLCSPEEFTRLCREKTQEIYPIKEANGRTRKALIICNTEFKHLSLRYGANFDIIGMKGLLEDLGYDVVVKEELTAEGMESEMKDFAALSEHQTSDSTFLVLMSHGTLHGICGTMHSEKTPDVLQYDTIYQIFNNCHCPGLRDKPKVIIVQACRGGNSGEMWIRESSKPQLCRGVDLPRNMEADAVKLSHVEKDFIAFYSTTPHHLSYRDKTGGSYFITRLISCFRKHACSCHLFDIFLKVQQSFEKASIHSQMPTIDRATLTRYFYLFPGN
B3: purified murine caspase-2 (protein)
chain: GPPCLLVKPCTPEFYQAHYQLAYRLQSQPRGLALVLSNVHFTGEKDLEFRSGGDVDHTTLVTLFKLLGYNVHVLHDQTAQEMQEKLQNFAQLPAHRVTDSCVVALLSHGVEGGIYGVDGKLLQLQEVFRLFDNANCPSLQNKPKMFFIQACRGDETDRGVDQQDGKNHTQSPGCEESDAGKEELMKMRLPTRSDMICGYACLKGNAAMRNTKRGSWYIEALTQVFSERACDMHVADMLVKVNALIKEREGYAPGTEFHRCKEMSEYCSTLCQQLYLFPGYPPT
B4: purified murine caspase-6 (protein)
chain: GFYKSREVFDPAEQYKMDHKRRGVALIFNHERFFWHLTLPERRGTNADRDNLTRRFSDLGFEVKCFNDLRAEELLLKIHEVSTSSHIDADCFICVFLSHGEGNHVYAYDAKIEIQTLTGLFKGDKCQSLVGKPKIFIIQACRGSQHDVPVVPLDMVDHQTDKLDNVTQVDAASVYTLPAGADFLMCYSVAEGYYSHRETVNGSWYIQDLCEMLARYGSSLEFTELLTLVNRKVSQRRVDFCKDPDAIGKKQVPCFASMLTKKLHFCPKPSK
B5: purified murine caspase-1 (protein)
chain: NKEDGTFPGLTGTLKFCPLEKAQKLWKENPSEIYPIMNTTTRTRLALIICNTEFQHLSPRVGAQVDLREMKLLLEDLGYTVKVKENLTALEMVKEVKEFAACPEHKTSDSTFLVFMSHGIQEGICGTTYSNEVSDILKVDTIFQMMNTLKCPSLKDKPKVIIIQACRGEKQGVVLLKDSVRDSEEDFLTDAIFEDDGIKKAHIEKDFIAFCSSTPDNVSWRHPVRGSLFIESLIKHMKEYAWSCDLEDIFRKVRFSFEQPEFRLQMPTADRVTLTKRFYLFPGH
B6: purified murine caspase-7 (protein)
chain: AKPDRSSIISSILLKKKRNASAGPVRTGRDRVPTYLYRMDFQKMGKCIIINNKNFDKATGMDVRNGTDKDAGALFKCFQNLGFEVTVHNDCSCAKMQDLLRKASEEDHSNSACFACVLLSHGEEDLIYGKDGVTPIKDLTAHFRGDRCKTLLEKPKLFFIQACRGTELDDGIQADSGPINDIDANPRNKIPVEADFLFAYSTVPGYYSWRNPGKGSWFVQALCSILNEHGKDLEIMQILTRVNDRVARHFESQSDDPRFNEKKQIPCMVSMLTKELYFSR
B7: purified murine granzyme B (protein)
chain: IIGGHEVKPHSRPYMALLSIKDQQPEAICGGFLIREDFVLTAAHCEGSIINVTLGAHNIKEQEKTQQVIPMVKCIPHPDYNPKTFSNDIMLLKLKSKAKRTRAVRPLNLPRRNVNVKPGDVCYVAGWGRMAPMGKYSNTLQEVELTVQKDRECESYFKNRYNKTNQICAGDPKTKRASFRGDSGGPLVCKKVAAGIVSYGYKDGSPPRAFTKVSSFLSWIKKTMKSS

Key:
[1] = tested on: T1, 35S-methionine-labeled His6-tagged murine caspase-14
[2] = biological target: T2, radiolabeled murine caspase-3
[3] = biological target: T3, 35S-methionine-labeled His6-tagged …

Row | Molecule | in vitro cleavage of 35S-methionine-labeled His6-tagged murine caspase-14, SDS-PAGE and autoradiography [1] | efficiency of proteolysis by serial 1:5 dilution of caspase-8 lysate, caspase-3 against caspase-14 as substrate [2] | in vitro cleavage of radiolabeled caspase-14 [3]
1 | murine caspase-8 (prodomain-deleted, lysate of E. coli expressing pLT-DpromCASP-8) | murine caspase-8 cleaved this 35.5 kDa murine caspase-14 weakly into 24 kDa (p18) and 11 kDa (p11) fragments | proteolytic activity of caspase-8 was at least 1000 times more efficient on caspase-3 than on murine caspase-14 | 
2 | B1 |  |  | none of the active enzyme preparations were able to cleave caspase-14
3 | B2 |  |  | none of the active enzyme preparations were able to cleave caspase-14
4 | B3 |  |  | none of the active enzyme preparations were able to cleave caspase-14
5 | B4 |  |  | none of the active enzyme preparations were able to cleave caspase-14
6 | B5 |  |  | none of the active enzyme preparations were able to cleave caspase-14
7 | B6 |  |  | none of the active enzyme preparations were able to cleave caspase-14
8 | B7 |  |  | none of the active enzyme preparations were able to cleave caspase-14
